# According to US20250236663A1 (NEURACLE SCIENCE, published 2025):
# T1: FAM19A5-M5
# T1 construct: also called FAM19A5 mutant M5
# T1 FAM19A5 mutant: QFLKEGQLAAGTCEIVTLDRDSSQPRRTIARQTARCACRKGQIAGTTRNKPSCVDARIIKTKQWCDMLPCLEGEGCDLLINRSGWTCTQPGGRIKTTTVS
# T2: FAM19A5 mutant M6 (human)
# T2 construct: FAM19A5 with region 6 replaced by the consensus of FAM19A1-4; The entry already carries the changes
# T2 chain: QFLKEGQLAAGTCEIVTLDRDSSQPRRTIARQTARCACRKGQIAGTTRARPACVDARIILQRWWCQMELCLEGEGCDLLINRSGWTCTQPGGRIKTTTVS
# T3: FAM19A5 fragment 5 mutant peptide F5-8 (#8) (human)
# T3 construct: The entry already carries the alanine substitution and Ser for Cys; also called mutant peptide #8
# T3 peptide: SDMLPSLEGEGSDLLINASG
# T4: FAM19A5 fragment 5 mutant peptide F5-5 (#5) (human)
# T4 construct: The entry already carries the alanine substitution and Ser for Cys; also called mutant peptide #5
# T4 peptide: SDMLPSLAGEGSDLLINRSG
# T5: FAM19A5 fragment 5 mutant peptide F5-1 (#1) (human)
# T5 construct: The entry already carries the alanine substitution and Ser for Cys; also called mutant peptide #1
# T5 peptide: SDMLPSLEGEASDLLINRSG
# T6: FAM19A5-M2
# T6 construct: also called FAM19A5 mutant M2
# T6 FAM19A5 mutant: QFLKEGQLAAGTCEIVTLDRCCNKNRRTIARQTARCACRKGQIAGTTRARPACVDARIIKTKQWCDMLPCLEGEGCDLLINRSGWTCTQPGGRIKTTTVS
# T7: FAM19A5 mutant M7 (human)
# T7 construct: FAM19A5 with region 7 replaced by the consensus of FAM19A1-4; The entry already carries the changes
# T7 chain: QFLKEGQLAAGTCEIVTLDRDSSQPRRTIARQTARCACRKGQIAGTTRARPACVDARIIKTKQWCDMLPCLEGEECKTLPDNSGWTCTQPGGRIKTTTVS
# T8: FAM19A5-M1
# T8 construct: also called FAM19A5 mutant M1
# T8 FAM19A5 mutant: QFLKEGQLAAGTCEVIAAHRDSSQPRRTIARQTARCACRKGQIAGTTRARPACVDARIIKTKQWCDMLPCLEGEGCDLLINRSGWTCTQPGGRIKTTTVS
# T9: FAM19A5-M3
# T9 construct: also called FAM19A5 mutant M3
# T9 FAM19A5 mutant: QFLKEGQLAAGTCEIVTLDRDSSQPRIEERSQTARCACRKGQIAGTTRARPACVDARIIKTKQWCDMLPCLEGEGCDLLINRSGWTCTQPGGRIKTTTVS
# T10: FAM19A5-M4
# T10 construct: also called FAM19A5 mutant M4
# T10 FAM19A5 mutant: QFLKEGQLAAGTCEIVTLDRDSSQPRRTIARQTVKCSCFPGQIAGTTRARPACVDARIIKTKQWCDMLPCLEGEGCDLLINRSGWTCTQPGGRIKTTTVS
# T11: FAM19A5 mutant M8 (human)
# T11 construct: FAM19A5 with region 8 replaced by the consensus of FAM19A1-4; The entry already carries the changes
# T11 chain: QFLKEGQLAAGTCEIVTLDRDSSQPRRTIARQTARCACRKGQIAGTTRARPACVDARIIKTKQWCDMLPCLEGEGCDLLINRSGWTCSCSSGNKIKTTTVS
# What was measured:
# FAM19A5-M5 [1] = target: T1, FAM19A5-M5; assay: ELISA on phage-displayed FAM19A5 mutants; y axis without label; no blank in the panel
# FAM19A5 mutant M6 [2] = target: T2, FAM19A5 mutant M6; assay: ELISA on phage-displayed FAM19A5 mutants; y axis without label; no blank in the panel, lowest bars about 0.05
# FAM19A5-M5 [3] = target: T1, FAM19A5-M5; assay: as above
# FAM19A5 mutant M6 [4] = target: T2, FAM19A5 mutant M6; assay: ELISA on phage-displayed FAM19A5 mutants; y axis without label
# [5] = target: T3, FAM19A5 fragment 5 mutant peptide F5-8 …; assay: ELISA on the coated F5 mutant peptide
# Method: (§1) Overlapping peptide fragments (F1-F6, see FIG. 9) of the human FAM19A5 protein were synthesized and conjugated to BSA. Binding of the different anti-FAM19A5 antibodies to the BSA-conjugated peptide fragments F1-F6 was determined by Western blot analysis or ELISA assay. For the Western blot analysis, BSA-conjugated FAM19A5 fragments F1-F6 were separated by SDS polyacrylamide gel electrophoresis and transferred to a nitrocellulose membrane by the standard procedure. The membrane was incubated with the anti-FAM19A5 antibody (e.g., 1-65, 2 μg/ml, 1-65-scFv-rabbit Fc-SSS), and the antigen-antibody complexes were detected with the appropriate secondary antibody conjugated with horse-radish peroxidase (anti-rabbit IgG (Fc specific)-HRP, 1:4000 dilution). For the ELISA assay, the following protocol was used. FAM19A5 fragment F1-F6 (diluted to 1 μg/mL in 50 mM carbonate buffer (Biosesang) or to 20 μg/mL for high concentration analysis) were used to coat the wells of 96-well immuno plates (Thermo Scientific) (100 μL/well) overnight at 4° C. and then subsequently washed twice in 1×PBS. The plates were then blocked with the blocking buffer (100 μL/well) for 1 hour at room temperature. During the 1-hour incubation, the relevant anti-FAM19A5 antibodies were diluted to 1 μg/mL (or 20 μg/mL for high concentration analysis) in the diluent buffer. Once the plates were washed (2× using 1×PBS), the diluted anti-FAM19A5 antibodies were added to the appropriate wells, and the plates were incubated at room temperature for 1 hour. The plates were subsequently washed for a total of five times using the washing buffer. Next, the ODP substrate (prepared by dissolving one ODP tablet (O-phenylenediamine Dihydrochloride, Thermo) into 9 mL of sterilized deionized water and 1 mL of 10× stable Peroxide Stable buffer (Theromo)) was added to each of the wells, and the color change reaction was allowed to occur for 10 minutes. This reaction was stopped by adding 100 μL of 2N H2SO4 (Daejung) to the wells. The absorption value of each of the wells was detected at 492 nm using a 96-well microplate reader (Molecular Device).
# (§2) Next, to identify the specific amino acid residues within the epitope fragment F5 that the 1-65 and P2-C12 antibodies bind to, different amino acid residues of the F5 fragment were replaced with alanine as shown in Table 9 (below).
# [6] = target: T12, FAM19A5 fragment 5 mutant peptide F5-3 (#3) (human); assay: ELISA on the coated F5 mutant peptide
# T12 construct: The entry already carries the alanine substitution and Ser for Cys; also called mutant peptide #3
# Method: as §1, §2
# [7] = target: T13, FAM19A5 fragment 5 mutant peptide F5-4 (#4) (human); assay: ELISA on the coated F5 mutant peptide
# T13 construct: The entry already carries the alanine substitution and Ser for Cys; also called mutant peptide #4
# Method: as §1, §2
# [8] = target: T14, FAM19A5 fragment 5 mutant peptide F5-2 (#2) (human); assay: ELISA on the coated F5 mutant peptide
# T14 construct: The entry already carries the alanine substitution and Ser for Cys; also called mutant peptide #2
# Method: as §1, §2
# [9] = target: T4, FAM19A5 fragment 5 mutant peptide F5-5 …; assay: ELISA on the coated F5 mutant peptide
# Method: as §1, §2
# [10] = target: T5, FAM19A5 fragment 5 mutant peptide F5-1 …; assay: ELISA on the coated F5 mutant peptide
# Method: as §1, §2
# [11] = target: T15, FAM19A5 fragment 5 mutant peptide F5-6 (#6) (human); assay: ELISA on the coated F5 mutant peptide
# T15 construct: The entry already carries the alanine substitution and Ser for Cys; also called mutant peptide #6
# Method: as §1, §2
# FAM19A5-M2 = target: T6, FAM19A5-M2; assay: ELISA on phage-displayed FAM19A5 mutants; y axis without label; no blank in the panel
# FAM19A5 mutant M7 = target: T7, FAM19A5 mutant M7; assay: as above
# FAM19A5-M1 = target: T8, FAM19A5-M1; assay: as above
# FAM19A5 mutant M6 [12] = target: T2, FAM19A5 mutant M6; assay: as above
# FAM19A5-M3 = target: T9, FAM19A5-M3; assay: as above
# FAM19A5-M4 = target: T10, FAM19A5-M4; assay: as above
# FAM19A5 mutant M8 = target: T11, FAM19A5 mutant M8; assay: ELISA on phage-displayed FAM19A5 mutants; y axis without label
# T15 sequence (peptide, as listed by the source mutant): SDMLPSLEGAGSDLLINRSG
# T13 sequence (peptide, as listed by the source mutant): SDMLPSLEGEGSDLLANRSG
# T14 sequence (peptide, as listed by the source mutant): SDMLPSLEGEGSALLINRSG
# T12 sequence (peptide, as listed by the source mutant): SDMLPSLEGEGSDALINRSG
binder,measurement,setting,value
"Anti-FAM19A5 (15A9) (antibody, V domains shown, Only variable domains are tied to the name) VH: QVQLQESGPGLVKPSETLSLTCTVSGGSISSYYWSWIRQPPGKGLEWIGYIYPSGSTNYNPSLKSRVTISVDTSKNQFSLNLKSVTAVDTAVYYCARVNPFGYYYAMDVWGQGTTVTVSS VL: DIQMTQSPSSLSASVGDRITISCRASQSISTSLNWYQQTPGKAPRLLIYGASTLQSGVPSRFSGGGSGTDFSLTITSLQPEDFATYYCQESASIPRTFGQGTKLDIK",binding result,FAM19A5-M5 [1],binds
"Anti-FAM19A5 (P1-A08) (antibody, V domains shown, Only variable domains are tied to the name) VH: QSLEESGGRLVTPGTPLTLTCTASGFSLSTYYMSWVRQAPGKGLEWIGIVYPSGTTYYANWAKGRFTISTASTTVDLMITSPTTEDTATYFCARGDSFGYGLWGPGTLVTVSS VL: ELVLTQSPSVQVNLGQTVSLTCTADTLSRSYASWYQQKPGQAPVLLIYRDTSRPSGVPDRFSGSSSGNTATLTISGAQAGDEADYYCATSDGSGSNYQYVFGGGTQLTVT",binding result,FAM19A5 mutant M6 [2],binds
same,binding result,FAM19A5-M5 [3],binds
"Anti-FAM19A5 (P1-F02) (antibody, V domains shown, Only variable domains are tied to the name) VH: QSLEESGGRLVTPGTPLTLTCTASGFSLSNYYMGWVRQAPGEGLEWIGIIYASGSTYYASWAKGRFTISKTSTTVDLKMTSLTTEDTATYFCARIDIGVGDYGWAYDRLDLWGQGTLVTVSS VL: ELDMTQTPPSLSASVGETVRIRCLASEDIYSGISWYQQKPGKPPTLLIYGASNLESGVPPRFSGSGSGTDYTLTIGGVQAEDAATYYCLGGYSYSSITFGAGTNVEIK",binding result,FAM19A5 mutant M6 [2],binds
same,binding result,FAM19A5-M5 [3],binds
"Anti-FAM19A5 (P2-A01) (antibody, V domains shown, Only variable domains are tied to the name) VH: QEQLVESGGRLVTPGTPLTLSCTASGFFLSGYYMSWVRQAPGKGLEWIGIIYPSGSTDYASWAKGRFTISKTSTTVDLKITTPTTEDTATYFCARVAGYVGYGYETFFDIWGPGTLVTVSL VL: ELVMTQTPPSLSASVGETVRIRCLASEDIYSGISWYQQKPGKPPTLLIYGASNLESGVPPRFSGSGSGSDYTLTIGGVQAEDAATYYCLGGVTYSSTGTHLTFGAGTNVEIK",binding result,FAM19A5 mutant M6 [2],binds
same,binding result,FAM19A5-M5 [3],binds
"Anti-FAM19A5 (P2-C12) (antibody, V domains shown, Only variable domains are tied to the name; also called anti-FAM19A5 antibody P2-C12) VH: QSLEESGGRLVTPGTPLTLTCTVSGFSLSTYAVTWVRQAPGKGLEWIGYINWRGGTSYANWAKGRFTISKTSSTTVDLKMTSPTTEDTATYFCARDASSGAAFGSYGMDPWGPGTLVTVSS VL: ELDMTQTPSSVSAAVGGTVTIKCQASQSISSYLSWYQQKPGQPPKLLIYEASKLASGVPSRFSGSGYGTEFTLTISDLECADAATYYCQQGYSSTNVWNAFGGGTNVEIK",binding result,FAM19A5 mutant M6 [4],no binding
same,O.D (492nm),[5],0.1
same,binding result,[5],no binding
same,O.D (492nm),[6],3.84
same,O.D (492nm),[7],3.86
same,O.D (492nm),[8],3.65
same,O.D (492nm),[9],3.49
same,O.D (492nm),[10],0.056
same,binding result,[10],no binding
same,O.D (492nm),[11],0.095
same,binding result,[11],no binding
same,binding result,FAM19A5-M5 [3],binds
"Anti-FAM19A5 (P2-F07) (antibody, V domains shown, Only variable domains are tied to the name) VH: QSLEESGGRLVTPGTPLTLTCTASGFSLSSYYMNWVRQAPGKGLEWIGIIYPSGTTYYAGWAKGRFTISKTSTTVDLKITSPTSEDTATYFCARTVSGYFDIWGPGTLVTVSL VL: ELDLTQTPPSLSASVGGTVTINCLASEDIYSALAWYQQKPGKPPTLLISGTSNLESGVPPRFSGSGSGTDYTLTIGGVQAEDAATYFCQGYSSYPLTFGAGTNVEIK",binding result,FAM19A5 mutant M6 [2],binds
same,binding result,FAM19A5-M5 [3],binds
"Anti-FAM19A5 (P2-F11) (antibody, V domains shown, Only variable domains are tied to the name) VH: QEQLVESGGRLVTPGTTLTLTCTVSGFSLSSYGVSWVRQAPGKGLEWIGYIANNYNPHYASWAKGRFTISKTSSTTVDLKMTSLTTEDTATYFCARDNYGMDPWGPGTLVTVSS VL: ELDLTQTPSSVSAAVGGTVTINCQASQSVYNNKNLAWYQQKPGQPPKLLIYAASTLASGVSSRFKGSGSGTQFTLTISDVQCDDAATYYCQGEFSCSSADCNAFGGGTELEIL",binding result,FAM19A5-M5 [3],binds
"Anti-FAM19A5 (13F7) (antibody, V domains shown, Only variable domains are tied to the name) VH: QVQLQEWGAGLLKPSETLSLTCAINAESFNGYSWTWIRQTPGKGLEWIGEISHFGSANYNPSLKSRATISADKSKNQFSLKLTSVTAVDTAVYYCARALRGTYSRFYYGMDVWGQGTTVTVSS VL: DIVMTQTPLSLPVAPGEPASISCRSSQSLLHSNGYNYLDWYVQKPGQPPQLLIYLGSNRASGVPDRFSGSGSGTDFTLKISRVEAEDVGVYYCMQARQTPLTFGGGTKVEIK",binding result,FAM19A5-M2,binds
same,binding result,FAM19A5 mutant M7,binds
same,binding result,FAM19A5-M1,binds
same,binding result,FAM19A5 mutant M6 [12],binds
same,binding result,FAM19A5-M3,binds
same,binding result,FAM19A5-M4,binds
same,binding result,FAM19A5-M5 [1],binds
same,binding result,FAM19A5 mutant M8,no binding
